Experimental data taken from article PMC9365698 (2022).
One block for each binder: values may come before it.

Key:
Test in all cases: SPR
[1] = target: T1, CNTN1 (human, UniProt Q12860 21-993, biotin on the biotin-acceptor site (enzymatic, co-transfected BirA))
T1 chain: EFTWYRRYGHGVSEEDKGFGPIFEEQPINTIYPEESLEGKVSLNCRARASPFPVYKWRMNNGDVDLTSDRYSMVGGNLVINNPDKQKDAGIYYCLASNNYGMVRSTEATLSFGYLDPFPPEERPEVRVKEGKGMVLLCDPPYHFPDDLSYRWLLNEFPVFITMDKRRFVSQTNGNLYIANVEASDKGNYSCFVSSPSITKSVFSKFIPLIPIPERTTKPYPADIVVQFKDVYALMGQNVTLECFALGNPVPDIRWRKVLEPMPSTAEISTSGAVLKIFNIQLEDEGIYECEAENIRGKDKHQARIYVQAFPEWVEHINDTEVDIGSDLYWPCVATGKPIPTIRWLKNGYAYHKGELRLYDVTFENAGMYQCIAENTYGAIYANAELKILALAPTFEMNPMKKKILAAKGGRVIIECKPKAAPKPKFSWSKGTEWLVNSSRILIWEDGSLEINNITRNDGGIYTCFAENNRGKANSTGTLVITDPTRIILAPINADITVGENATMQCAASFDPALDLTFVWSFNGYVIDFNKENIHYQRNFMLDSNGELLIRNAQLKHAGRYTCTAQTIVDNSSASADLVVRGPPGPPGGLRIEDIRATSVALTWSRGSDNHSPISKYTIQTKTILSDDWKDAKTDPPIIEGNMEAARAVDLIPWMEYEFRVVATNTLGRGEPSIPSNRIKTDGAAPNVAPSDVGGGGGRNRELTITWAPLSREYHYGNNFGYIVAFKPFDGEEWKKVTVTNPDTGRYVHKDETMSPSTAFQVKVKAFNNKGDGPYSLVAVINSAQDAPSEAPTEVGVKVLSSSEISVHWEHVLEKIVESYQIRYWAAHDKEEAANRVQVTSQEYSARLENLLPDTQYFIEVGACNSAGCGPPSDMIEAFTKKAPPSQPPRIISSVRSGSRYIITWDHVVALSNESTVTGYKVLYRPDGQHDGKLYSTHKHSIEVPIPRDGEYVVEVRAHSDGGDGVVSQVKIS

[2] = target: FGFR2 (Homo sapiens)
[3] = target: T2, CDH2 (Homo sapiens)
T2 chain: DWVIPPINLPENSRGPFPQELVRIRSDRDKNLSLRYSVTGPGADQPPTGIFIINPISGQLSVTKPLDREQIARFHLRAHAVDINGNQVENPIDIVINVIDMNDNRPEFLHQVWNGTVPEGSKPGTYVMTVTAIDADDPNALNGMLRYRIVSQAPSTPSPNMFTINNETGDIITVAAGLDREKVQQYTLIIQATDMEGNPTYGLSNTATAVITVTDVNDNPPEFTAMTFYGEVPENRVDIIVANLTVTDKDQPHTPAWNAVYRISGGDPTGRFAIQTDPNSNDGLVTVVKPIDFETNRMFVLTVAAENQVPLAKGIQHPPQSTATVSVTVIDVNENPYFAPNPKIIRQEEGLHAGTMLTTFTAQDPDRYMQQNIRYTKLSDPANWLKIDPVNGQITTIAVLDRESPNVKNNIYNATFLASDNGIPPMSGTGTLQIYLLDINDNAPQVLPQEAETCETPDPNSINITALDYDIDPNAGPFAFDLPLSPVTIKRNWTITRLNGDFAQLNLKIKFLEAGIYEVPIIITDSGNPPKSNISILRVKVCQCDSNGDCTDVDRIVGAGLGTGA

[4] = target: T3, PVR (human, UniProt P15151 21-343, biotin on the biotin-acceptor site (enzymatic, co-transfected BirA))
T3 chain: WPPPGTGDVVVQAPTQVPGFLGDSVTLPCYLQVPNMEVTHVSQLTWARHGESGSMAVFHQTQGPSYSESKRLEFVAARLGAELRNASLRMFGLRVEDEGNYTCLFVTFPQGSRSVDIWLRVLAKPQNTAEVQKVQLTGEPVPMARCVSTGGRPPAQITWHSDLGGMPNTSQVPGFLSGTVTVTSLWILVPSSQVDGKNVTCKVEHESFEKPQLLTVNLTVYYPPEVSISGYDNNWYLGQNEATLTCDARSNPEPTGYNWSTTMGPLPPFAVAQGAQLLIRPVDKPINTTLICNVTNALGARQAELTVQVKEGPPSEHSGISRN

[5] = target: T4, TNR16 (Homo sapiens)
T4 chain: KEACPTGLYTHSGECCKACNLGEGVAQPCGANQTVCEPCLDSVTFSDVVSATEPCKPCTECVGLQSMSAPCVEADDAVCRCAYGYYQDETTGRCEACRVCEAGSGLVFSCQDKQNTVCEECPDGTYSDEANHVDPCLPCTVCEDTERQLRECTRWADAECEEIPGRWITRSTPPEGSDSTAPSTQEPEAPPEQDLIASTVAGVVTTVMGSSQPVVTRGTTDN

[6] = target: the molecule itself
[7] = target: T5, PI16 (Homo sapiens)
T5 chain: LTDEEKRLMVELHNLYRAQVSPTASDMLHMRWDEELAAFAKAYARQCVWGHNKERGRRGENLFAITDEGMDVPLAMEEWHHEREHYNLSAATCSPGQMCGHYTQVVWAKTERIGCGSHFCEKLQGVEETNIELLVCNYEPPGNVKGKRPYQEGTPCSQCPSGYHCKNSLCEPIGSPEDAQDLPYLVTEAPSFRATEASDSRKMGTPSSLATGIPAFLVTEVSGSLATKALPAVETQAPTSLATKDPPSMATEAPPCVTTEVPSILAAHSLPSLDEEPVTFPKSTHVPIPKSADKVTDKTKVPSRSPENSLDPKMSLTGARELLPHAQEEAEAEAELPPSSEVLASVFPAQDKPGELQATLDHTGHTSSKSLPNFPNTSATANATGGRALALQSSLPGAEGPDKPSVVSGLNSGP

[8] = target: JAG1 (human, UniProt P78504 34-1067, biotin on the biotin-acceptor site (enzymatic, co-transfected BirA))

B2: FCER2 (protein)
chain: DTTQSLKQLEERAARNVSQVSKNLESHHGDQMAQKSQSTQISQELEELRAEQQRLKSQDLELSWNLNGLQADLSSFKSQELNERNEASDLLERLREEVTKLRMELQVSSGFVCNTCPEKWINFQRKCYYFGKGTKQWVHARYACDDMEGQLVSIHSPEEQDFLTKHASHTGSWIGLRNLDLKGEFIWVDGSHVDYSNWAPGEPTSRSQGEDCVMMRGSGRWNDAFCDRKLGAWVCDRLATCTPPASEGSAESMGPDSRPDPDGRLPTPSAPLHS
koff [2]: ~0.01 s⁻¹

B3: FCER2 (protein)
chain: B2 chain
modifications: propeptide assumed removed
koff [3]: ~0.6 s⁻¹

B5: CD80 (protein)
chain: VIHVTKEVKEVATLSCGHNVSVEELAQTRIYWQKEKKMVLTMMSGDMNIWPEYKNRTIFDITNNLSIVILALRPSDEGTYECVVLKYEKDAFKREHLAEVTLSVKADFPTPSISDFEIPTSNIRRIICSTSGGFPEPHLSWLENGEELNAINTTVSQDPETELYAVSSKLDFNMTTNHSFMCLIKYGHLRVNQTFNWNTTKQEHFPDN
koff [5]: ~1.4 s⁻¹

B6: MPZL1 (protein)
chain: SALEVYTPKEIFVANGTQGKLTCKFKSTSTTGGLTSVSWSFQPEGADTTVSFFHYSQGQVYLGNYPPFKDRISWAGDLDKKDASINIENMQFIHNGTYICDVKNPPDIVVQPGHIRLYVVEKENLPV
koff [6]: ~0.6 s⁻¹

Results, then the binder that gave them:

koff [1]: ~0.7 s⁻¹
B1: NRCAM (protein)
chain: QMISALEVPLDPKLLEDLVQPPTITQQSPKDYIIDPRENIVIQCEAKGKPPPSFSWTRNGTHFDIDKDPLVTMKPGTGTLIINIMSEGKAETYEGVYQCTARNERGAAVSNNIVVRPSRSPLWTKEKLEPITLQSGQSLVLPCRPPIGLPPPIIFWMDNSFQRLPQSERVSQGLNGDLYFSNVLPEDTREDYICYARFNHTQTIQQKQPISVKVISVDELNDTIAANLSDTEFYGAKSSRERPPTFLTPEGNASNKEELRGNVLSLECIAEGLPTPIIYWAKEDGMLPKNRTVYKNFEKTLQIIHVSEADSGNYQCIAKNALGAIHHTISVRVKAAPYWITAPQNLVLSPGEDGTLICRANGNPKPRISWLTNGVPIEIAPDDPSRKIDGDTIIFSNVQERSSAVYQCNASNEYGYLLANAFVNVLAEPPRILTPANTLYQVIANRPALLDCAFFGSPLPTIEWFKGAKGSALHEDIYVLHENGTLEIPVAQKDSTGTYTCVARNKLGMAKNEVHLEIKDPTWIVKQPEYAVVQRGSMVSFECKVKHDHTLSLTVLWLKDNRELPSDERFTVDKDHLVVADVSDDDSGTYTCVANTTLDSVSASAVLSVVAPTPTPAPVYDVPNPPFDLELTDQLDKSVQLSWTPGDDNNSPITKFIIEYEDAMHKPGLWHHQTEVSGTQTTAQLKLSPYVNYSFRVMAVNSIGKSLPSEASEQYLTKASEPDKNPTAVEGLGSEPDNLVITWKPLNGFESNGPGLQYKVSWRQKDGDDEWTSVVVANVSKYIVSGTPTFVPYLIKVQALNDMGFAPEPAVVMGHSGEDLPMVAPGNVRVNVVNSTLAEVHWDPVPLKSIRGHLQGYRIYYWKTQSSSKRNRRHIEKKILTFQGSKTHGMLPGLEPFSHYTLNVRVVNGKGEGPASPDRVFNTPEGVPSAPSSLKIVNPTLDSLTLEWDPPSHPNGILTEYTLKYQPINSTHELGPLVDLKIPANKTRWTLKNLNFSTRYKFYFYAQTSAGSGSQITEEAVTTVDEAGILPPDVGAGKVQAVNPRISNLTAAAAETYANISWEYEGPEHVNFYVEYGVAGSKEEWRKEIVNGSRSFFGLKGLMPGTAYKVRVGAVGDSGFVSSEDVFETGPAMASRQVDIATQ

koff [4]: ~0.9 s⁻¹
B4: KIR2DL5A (receptor)
chain: HEGGQDKPLLSAWPSAVVPRGGHVTLLCRSRLGFTIFSLYKEDGVPVPELYNKIFWKSILMGPVTPAHAGTYRCRGSHPRSPIEWSAPSNPLVIVVTGLFGKPSLSAQPGPTVRTGENVTLSCSSRSSFDMYHLSREGRAHEPRLPAVPSVNGTFQADFPLGPATHGGTYTCFGSLHDSPYEWSDPSDPLLVSVTGNSSSSSSSPTEPSSKTGIRRH
modifications: biotin on the biotin-acceptor site (enzymatic, co-transfected BirA)

koff [7]: ~2 s⁻¹
B7: TNR21 (protein)
chain: QPEQKASNLIGTYRHVDRATGQVLTCDKCPAGTYVSEHCTNTSLRVCSSCPVGTFTRHENGIEKCHDCSQPCPWPMIEKLPCAALTDRECTCPPGMFQSNATCAPHTVCPVGWGVRKKGTETEDVRCKQCARGTFSDVPSSVMKCKAYTDCLSQNLVVIKPGTKETDNVCGTLPSFSSSTSPSPGTAIFPRPEHMETHEVPSSTYVPKGMNSTESNSSASVRPKVLSSIQEGTVPDNTSSARGKEDVNKTLPNLQVVNHQQGPHHRHILKLLPSMEATGGEKSSTPIKGPKRGHPRQNLHKHFDINEH

koff [8]: ~0.1 s⁻¹
B8: VASN (receptor)
chain: CPSGCQCSQPQTVFCTARQGTTVPRDVPPDTVGLYVFENGITMLDAGSFAGLPGLQLLDLSQNQIASLPSGVFQPLANLSNLDLTANRLHEITNETFRGLRRLERLYLGKNRIRHIQPGAFDTLDRLLELKLQDNELRALPPLRLPRLLLLDLSHNSLLALEPGILDTANVEALRLAGLGLQQLDEGLFSRLRNLHDLDVSDNQLERVPPVIRGLRGLTRLRLAGNTRIAQLRPEDLAGLAALQELDVSNLSLQALPGDLSGLFPRLRLLAAARNPFNCVCPLSWFGPWVRESHVTLASPEETRCHFPPKNAGRLLLELDYADFGCPATTTTATVPTTRPVVREPTALSSSLAPTWLSPTEPATEAPSPPSTAPPTVGPVPQPQDCPPSTCLNGGTCHLGTRHHLACLCPEGFTGLYCESQMGQGTRPSPTPVTPRPPRSLTLGIEPVSPTSLRVGLQRYLQGSSVQLRSLRLTYRNLSGPDKRLVTLRLPASLAEYTVTQLRPNATYSVCVMPLGPGRVPEGEEACGEAHTPPAVHSNHAPVTQAREGNLP
modifications: biotin on the biotin-acceptor site (enzymatic, co-transfected BirA)
